Experimental data published in the supplement of paper PMC9170038.

System: K4 kissing-loop RNA reporter
Test: apparent KD of K4 kissing-loop reporter; higher = weaker reporter binding
Conditions: Eterna round: R107
Method: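 RNA-MaP round R107: designed RNA switches with theophylline, tryptophan, arginine or FMN aptamers are transcribed on-chip within common flanks. They are titrated with a labelled K4 kissing-loop RNA reporter in RNA-MaP buffer (100 mM Tris pH 7.5, 80 mM KCl, 4 mM MgCl2), without ligand or with the indicated ligand. Median apparent KD per design.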

[1] = input ligand: theophylline 20 uM
[2] = input ligand: tryptophan 2.4 mM
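Note: bound reporter read as fluorescence of individual clusters on recovered sequencing chips by microscopy, with normalized cluster intensities fitted with a binding model.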

Sequence	apparent KD of K4 kissing-loop reporter (input ligand: FMN 200 uM) [µM]	apparent KD of K4 kissing-loop reporter (input ligand: arginine 13.2 mM) [µM]	apparent KD of K4 kissing-loop reporter (input ligand: none) [µM]	apparent KD of K4 kissing-loop reporter [1] [µM]	apparent KD of K4 kissing-loop reporter [2] [µM]
UGAUAGGACAGAAGGAGCGGAAGCUAGUCAAAGACUAGCACGUUAAUAACAGGAGUGAUGUUCCAGGUAGGUCGCUGUCCUAUCU [ArgBX 24 #SwitchBubble #StaticStem]	0.126	0.118	0.136	0.118	0.113
GCCGUAGAUUGAAGGAGCGCCUUCUUACCAAGAGUGAUGUUCUUUGGUACCAUGUUCAGUAGGCAGGUAGGUCGCAAUCUACGGC	0.292	0.258	0.332	0.387	0.39
AAAUUUUAAAGUGAUACCAGACAUCUCUAUUACAUUAAUAUAGCUAAGUGAUGUUUAGCAGUCCCUUGGCAGCACAAUUUAAUUA [JR_SSTheophyB_Sub012]	0.336	0.316	0.334	0.474	0.266
AUUGAUAUAUAUAUUUGAUUUUUAUGUGAUACCAGACAAGGCAUAGUCCCUUGGCAGCACUUUAUAUUUACGAGUGAUGUUCGUA [JR_SSTheophyA_Sub025]	0.192	0.18	0.18	0.187	0.154
GGAUAGGAUAGAGGAUAUGGAAAACACAGAAGUGACUUGUUGUGUUUAUCCAUAGGGAGUGAUGUUCCAGAAGGCUGUCCUAUCG [MatMod 22 - Jieux - Exclusion - FMN B]	0.333	0.206	0.206	0.23	0.154
GUUUGGCGGGCGGCCGCCACUCGGACGAGUCGCAGUGAUGUUGUGGUUUGCCAGUCGUCUUCAUCGAGGACCGGGUUUGUCGGGC [Exclusion Tryptophan B GF 19]	0.495	0.38	0.6	0.571	0.496
UGUAUGUGAUUUGAUACCAGACCAGCUGGUGGUGUAUGAGUGAUGUUCAUGUUGGUUUGGGUCCCUUGGCAGCAAAUCGCAUACU [KL-SSTheoB30]	0.0145	0.0074	0.0118	0.00888	0.0117
AAUUUCGGAUACAUCAUAGUUUUAAUUCGGCGAGGACCGGUACGGCCGCCACUCGGUAUAGACGCGUCCAGUGAUGUUGGCGCUU [theeternabot_sameState_KL_Trp_A_45]	0.262	0.193	0.237	0.26	0.223
CAAUGAGUAUAAGAUGAUAUCAUAACAGAAGGAGCGAGUGAUAACUCAGGUAGGUCGCUGAAUUUAUCGAGUGAUGUUCGAUAAA [whbob_SS_Arginine_A_sa116]	0.205	0.154	0.187	0.166	0.184
AUUUUUUUAUCAGGAUAUUAGUGAUGGUUUGUUUUGUUAGUGAUGUUGAUAUUUGUUUUAUGUAUUUAAGAAGGGAUUGAGAUGU [seesullin]	0.067	0.0253	0.0441	0.0292	0.0489
UAGUAGCUCUCGGCCGCCACUCCUCAGUGAUGUUGAGAUAUUAAGAGCCAAUUGGCUCAUAUAAAGAGGACCGGGAGAGCUACAU [AK4.2 SS Tryptophan B]	0.355	0.339	0.365	0.35	0.126
UGAUACCAGACGGCCGCCACUUCCGUAAGUCAAAGACUUGCCAAGGGAAUCGUCCAGUGAUGUUGGAGGACCGGGUCUGGUAUCU [FiskerMod 5 - Jieux - Exclusion - Tryptophan B]	0.677	0.491	0.725	0.511	0.55
GGUCCGGGCUCGGCCGCCACUCCCUCCUGCCGCAAGGUGGGAUACCGAGUGAUGUUCGGUUGGAGGAGGACCGGGAGCCCGGACC [#2 Exclusion - Tryptophan B Attempt #14 (HarryS)]	0.115	0.124	0.121	0.133	0.118
UGUGUUUACCUGACUCAGUGAUGUUGAGAAGGAGCGUGCAAAAGCACAGGUAGGUCGCUCAACCUAAAUUCAGGUGAGCACUAAA	0.271	0.201	0.255	0.252	0.264
GGGAGUAGUGCGGCCGCCACUGAGAAAGAAGAAGAAUAUAGUGAUGUUAUGUAGGAAAGGAAGAACAGGACCGGGCAUUAGAUUU [SSTRyptB.G]	0.455	0.432	0.477	0.387	0.27
UCUCAAGCACAGUGAUGUUGUGCUUGGGAAGGAGCGCGUGGGAACGCAGGUAGGUCGCCCGGUAAAUCGCGUCAAUGCUAGAGGC [Arg A Ex t5]	0.118	0.11	0.0999	0.1	0.116
GCCGUAGAUGGAAGGAGCGUGUCAAAGUGAUGUUUUGAUUAACUCCCUAAGGGAUAGAUGACACAGGUAGGUCGCCAUCUACGGC	0.0745	0.0635	0.0743	0.102	0.0633
UUCAGUGAUGUUGAACACUGUUGUAUAAACUAGGAUAUGCUGAUAAGCAGAAGGAGUGAUGUUCCGUUCAUCAUCAGAAUUAAAU [KL-XFMN-A3]	0.673	0.4	0.359	0.424	0.25
UAAACCAAAUUACGUCACCUUGUCCAAUCUAAGGAUAUGUGAUUCCACAGAAGGUAGCCACGGGAGUGAUGUUCGCGUUAAGGCG [theeternabot_exclusion_KL_FMN_A_31]	0.475	0.388	0.465	0.46	0.419
CUGGGUUGACGAAAAGUCAACAAACGAGAAGGAGCGCACGAAAGUGCAGGUAGGUCGCUCAGUCCAGUGAUGUUGGAACAUCCAG [#SwitchBubble 8 #K4Late]	0.664	0.498	0.462	0.508	0.436
GGUGUUGUUUGUGCUGUUUUCCUCGUUUCUCGAGGACCGGUACGGCCGCCACUCGAGUGAUGUUUGGGUAGCGAUCCUUGUUAGU [Bdazzled - #6 Exc. Tryptophan A]	0.335	0.215	0.313	0.272	0.383

Sequence	apparent KD of K4 kissing-loop reporter (input ligand: FMN 200 uM) [µM]	apparent KD of K4 kissing-loop reporter (input ligand: arginine 13.2 mM) [µM]	apparent KD of K4 kissing-loop reporter (input ligand: none) [µM]	apparent KD of K4 kissing-loop reporter [1] [µM]	apparent KD of K4 kissing-loop reporter [2] [µM]
UUUGAAAUGACUGAUACCAGUGAAAAUAUAUGUAGUGAUGUUAUAUACUAAUUUAAUAAGCGCCCUUGGCAGCAGUAUGAAUUAU [AstrosExc-theB#16]	0.763	0.565	0.927	0.527	0.56
AAUAAAAUCACGGCCGCCACUGAAUAAUUGGUAAGUAGUGAUGUUACUUUACUUUUCUUAUUUAACAGGACCGGGUGAAUAUUUA [JR_ExcTryptoB_Sub009]	0.104	0.0834	0.0985	0.0882	0.123
AGACUACCACACUGUCAAUAGACAGUGGACUAGGAUAUGCUGAUAAGCAGAAGGAGUGAUGUUCCUUGGUAGUCAAUAAAAUAAU [FmnAX 13 G28+U67]	0.308	0.269	0.253	0.335	0.265
GUUACUUCAGAAGGAUAUUAGUAAACAACACGGUAGUGAUGUUACCGUUAUCAAGCCCGGCUUCACUAAGAAGGUCUCCACCGCG [theeternabot_sameState_KL_FMN_B_23]	0.052	0.0679	0.0529	0.07	0.0541
UGUCAUUGGUCGGCCGCCACUAGGACCGGGACUUCUCUAGUGAUGUUAGUCUGGUCGGCCGCCACUAGGACCGGGACCGAUGACU [KL-SSTryp-B14 #DoubleAptamer]	0.561	0.368	0.671	0.327	0.103
GGAGUUACCUGGGAUACCAGCCGGAGGCCCAGAGCUCGGAGUGAUGUUCUGGGAUGUUUCGGCCCUUGGCAGCUCUGGGUCUCCG [#2 Exclusion - Theophylline B Attempt #5 (HarryS)]	1.05	0.627	0.806	0.433	1.41
GCGCGUCAUGUCGGCGGUGACUACGCCGAUACCAGCCGGGAAACCGGCCCUUGGCAGCGGCGCGCCGGAGUGAUGUUCCGACAGA [#2 Exclusion - Theophylline A Attempt #3 (HarryS)]	0.126	0.205	0.19	0.359	0.109
CGCAAGCAGCCAGUGAUGUUGGCCGCCUUGCGAGGACCGGUACGGCCGCCACUCGAAGGCGGCUACUGAUAAACCGUCUAACGGA [KL-XTryp-A9]	0.112	0.0963	0.105	0.0954	0.274
GUAGGAUGAGGAGGAGGAUGAAUUACUGAAGGAGCGCAUAUUUUUGCAGGUAGGUCGCGGUAAAGAAGUAUAGUGAUGUUAUAUA [SSArgA.J]	0.41	0.434	0.381	0.624	0.304
AUGUCUGAUAGCAGUGAUGUUGCUUCGGAUACCAGACGCGAUCUUGUCCCUUGGCAGCUGACACGGCACGUGCUAGGUUAGAAGG [whbob_Ex_Theo_A_th75]	0.169	0.125	0.155	0.124	0.134
UGAUACCAGACGGCCGCCACUGGGACCGGGAGUGAUGUUCCAAAUAAAAGAAACUCGGCCGCCACUAGGACCGGGUCUGGUAUCU [TrypBX 30 #DoubleAptamer #SwitchBubble]	0.622	0.278	0.379	0.479	0.11
AAUAAACAGUCGGCCGCCACUUCAAUAGACUUAUUAUUGAAUGGUGUAGUUCUUCAGUGAUGUUGAAGGACCGGGACUUUCGCGC [Isesator]	0.157	0.134	0.145	0.139	0.158
UGGCGUUGAACCGCCGAAUCGCUGUGAGAAGGAGCGGUAAAAUUGCCAGGUAGGUCGCUCACAGCUUCACAGUGAUGUUGUGGAA [Enxeisen]	0.248	0.161	0.408	0.212	0.188
AUUAUAAAGUCGGCCGCCACUGAGAGUAGUGAUGUUACUCUUUUCCUUUAGAUAUUAUAUUUUAUCAGGACCGGGACAUCUGAUU [JR_Nu_ExcTryptoB_Sub024]	0.147	0.126	0.148	0.134	0.13
AGUAAUGAGUGAUGUUCAAAUAGUAAGGAUACCAGUAAUUCAAAAUGCCCUUGGCAGCUUAACGCUACCAAUAGAUAAAUAAUGG [Theophilline A V2 (+2A)]	0.134	0.166	0.144	0.172	0.0968
UGACAUUGCUCAGAUACCAGACCUGAGGAUCACCCGGGUGCCAAACGUACAAUAAUAAAGGUCCCUUGGCAGCUGAGCAAUGUCU [TheoBX 14]	0.0562	0.0397	0.103	0.0684	0.0839
AGUGCACUGGCAGGAUAUGUACAGUGAUGUUGUGUAUGUCAGCAAGUCAAAGACUUGCUCUUCUGUGCAGAAGGGCCUGUGUACA [#05 K4 FMN B Exclusion]	0.442	0.526	0.668	0.532	0.534
GAGAUAGAGGCGGCCGCCACUAGUGAUGUUGGUGAUGUUAGAUAGAGAAUAGAACGGGUACUCCCUAGGACCGGGCCAGAUGGAG [#04 K4 Tryptophan B Exclusion]	0.0638	0.0349	0.0585	0.0494	0.053
UAAUAUAAUCUGUCGUUUACAAUAUUUAGUCAGGAUAUCGUAUAUUCGAGAAGGGACACUAUCUAGUGAUGUUAGAUAUUUCGUU [JR_ExcFMNA_Sub015]	0.051	0.0814	0.0596	0.0766	0.0546
UGAGUGAUGUUCAAGGACUAGAUCUAAAUAAAGGAUAUAGCAUACGCUAGAAGGUUAAAAUUUCUGGAUCCCAGUUUAAACCUUU [theeternabot_sameState_KL_FMN_A_49]	0.246	0.154	0.222	0.222	0.195
UGAUAGGACAGAAGGAGCGGUAGUGAUGUUGCCAAAAGAAUAAGGUGUCAAAAGACACCCUACCAGGUAGGUCGCUGUCCUAUCU	0.346	0.368	0.423	0.429	0.289
